Test results from patent US20210380703A1 (RIGEL PHARMACEUTICALS, published 2021).
Where a chain is given by its changes, count along the chain named. Values belong to the binder of their own block, whether it stands above or below them.

Legend:
Goat anti-Human Kappa = target: T1, Goat anti-Human Kappa; experiment: ELISA, positive control
T1 construct: Positive control of the ELISA; also called biotinylated goat anti-human kappa light chain
In short: (§1)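 mAb binding by ELISA; antigens: hu ACVR2A, mu ACVR2A; pos ctrl biotinylated goat anti-hu kappa LC; neg ctrl hu Fc.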

Mouse ACVR2A = Mouse ACVR2A (mouse, UniProt P27038 20-135, limits assumed); experiment: ELISA
Mouse ACVR2A, sequence (P27038 20-135 limits assumed): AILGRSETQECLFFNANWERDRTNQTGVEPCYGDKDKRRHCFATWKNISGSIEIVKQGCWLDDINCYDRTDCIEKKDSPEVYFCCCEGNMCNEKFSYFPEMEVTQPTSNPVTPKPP
In short: as §1

Human ACVR2A = target: T2, Human ACVR2A (human, UniProt P27037 20-135, limits assumed); experiment: ELISA
T2 construct: also called activin receptor, type II A
T2 sequence (P27037 20-135 limits assumed): as the sequence (P27038 20-135 limits assumed) above, with R20K, I73V counted along it
In short: as §1
Note: test concentration or dose not given here.

optical density (Goat anti-Human Kappa): 3.54 OD
optical density (Mouse ACVR2A): 2.91 OD
optical density (Human ACVR2A): 2.76 OD
B1: 370_F05 (antibody, V domains shown)
VH: EVQLLESGGGLVQPGGSLRLSCAASGFTFSSYGMNWVRQAPGKGLEWVSGINYNSGYTSYADSVKGRFTISRDNSKNTLYLQMNSLRAEDTAVYYCARSANWHDTALDYWGQGTLVTVSS
VL: DIQMTQSPSSLSASVGDRVTITCRASQSIVSYVNWYQQKPGKAPKLVIYAATSRASGVPSRFSGSGSGTDFTLTISSLQPEDFATYYCQQSYETPLTFGGGTKVEIK

optical density (Goat anti-Human Kappa): 3.65 OD
optical density (Mouse ACVR2A): 3.18 OD
optical density (Human ACVR2A): 3.31 OD
B2: 370_H01 (antibody, V domains shown)
VH: B1 VH with G33S, T58K, S59G
VL: B1 VL with V30I, V33L, V47L, A51V, E93D

optical density (Goat anti-Human Kappa): 3.58 OD
optical density (Mouse ACVR2A): 3.44 OD
optical density (Human ACVR2A): 3.1 OD
B3: 370_G03 (antibody, V domains shown)
VH: B1 VH with G33S, S49A, G50N, S55G, S59G
VL: B1 VL with V30L, S31T, A51T, E93N, T94N

optical density (Goat anti-Human Kappa): 3.41 OD
optical density (Mouse ACVR2A): 2.33 OD
optical density (Human ACVR2A): 2.19 OD
B4: 370_G06 (antibody, V domains shown)
VH: B1 VH with S31D, N35H, G50S, S55G
VL: B1 VL with V30L, Y92D, E93N

optical density (Goat anti-Human Kappa): 3.54 OD
optical density (Mouse ACVR2A): 3.28 OD
optical density (Human ACVR2A): 2.95 OD
B5: 370_H09 (antibody, V domains shown)
VH: B1 VH with S49A, G50N, S55G
VL: B1 VL with V47L, E93D, T94N

optical density (Goat anti-Human Kappa): 3.63 OD
optical density (Mouse ACVR2A): 3.3 OD
optical density (Human ACVR2A): 3.17 OD
B6: 371_A12 (antibody, V domains shown)
VH: B1 VH with S30D, G33S, S49A
VL: B1 VL with V30L, R54L, E93D

optical density (Goat anti-Human Kappa): 3.58 OD
optical density (Mouse ACVR2A): 2.91 OD
optical density (Human ACVR2A): 2.66 OD
B7: 372_D02 (antibody, V domains shown)
VH: B1 VH with N35H, S49A, S55G, S59G
VL: B1 VL with V30L, S31T, V33L, E93D, T94N

optical density (Goat anti-Human Kappa): 3.64 OD
optical density (Mouse ACVR2A): 3.14 OD
optical density (Human ACVR2A): 3.01 OD
B8: 370_G09 (antibody, V domains shown)
VH: B1 VH with S49A, S55G, T58K
VL: B1 VL with V30L, T94S

optical density (Goat anti-Human Kappa): 3.47 OD
optical density (Mouse ACVR2A): 3.04 OD
optical density (Human ACVR2A): 3.17 OD
B9: 372_F09 (antibody, V domains shown)
VH: B1 VH with S30D, G33S, S49A, G50N, T58K, S59G
VL: B1 VL with V30L, S31T, V33L, R54L, E93S, T94S

optical density (Goat anti-Human Kappa): 3.62 OD
optical density (Mouse ACVR2A): 3.22 OD
optical density (Human ACVR2A): 2.98 OD
B10: 370_G02 (antibody, V domains shown)
VH: B1 VH with S31D, G33S, S49A, G50N, S55G, T58K, S59G
VL: B1 VL with V33L, V47L, A55H, E93D, T94S

optical density (Goat anti-Human Kappa): 3.72 OD
optical density (Mouse ACVR2A): 3.07 OD
optical density (Human ACVR2A): 2.98 OD
B11: 370_G11 (antibody, V domains shown)
VH: B1 VH with G33S, S49A, G50S, A106H
VL: B1 VL with V33L, E93S, T94L

optical density (Goat anti-Human Kappa): 3.49 OD
optical density (Mouse ACVR2A): 2.74 OD
optical density (Human ACVR2A): 2.98 OD
B12: 370_G10 (antibody, V domains shown)
VH: B1 VH with S31D
VL: B1 VL with V30S, V33L, V47L, A50V, A51V, T52N, S53N, T94N

optical density (Goat anti-Human Kappa): 3.64 OD
optical density (Mouse ACVR2A): 3.4 OD
optical density (Human ACVR2A): 3.2 OD
B13: 372_A04 (antibody, V domains shown)
VH: B1 VH with S30D, G33S
VL: B1 VL with V30L, S31T, V33L

optical density (Goat anti-Human Kappa): 3.68 OD
optical density (Mouse ACVR2A): 2.62 OD
optical density (Human ACVR2A): 2.41 OD
B14: 371_F01 (antibody, V domains shown)
VH: B1 VH with G33S, S49A, S55G, S59G
VL: B1 VL with V30L, S31T, R54L, E93N, T94N

optical density (Goat anti-Human Kappa): 3.59 OD
optical density (Mouse ACVR2A): 3.12 OD
optical density (Human ACVR2A): 2.61 OD
B15: 372_B04 (antibody, V domains shown)
VH: B1 VH with S30D, S49A, G50N, S55G
VL: B1 VL with V30L, R54L, E93D, T94S

optical density (Goat anti-Human Kappa): 3.44 OD
optical density (Mouse ACVR2A): 3.22 OD
optical density (Human ACVR2A): 3.38 OD
B16: 372_F08 (antibody, V domains shown)
VH: B1 VH with S31D, G33S, G50N, S59G
VL: B1 VL with V30L, S31T, E93D

optical density (Goat anti-Human Kappa): 3.64 OD
optical density (Mouse ACVR2A): 3.22 OD
optical density (Human ACVR2A): 3.15 OD
B17: 370_F10 (antibody, V domains shown)
VH: B1 VH with G33S, S49A, S55G
VL: B1 VL with V33L, E93N, T94S

optical density (Goat anti-Human Kappa): 3.3 OD
optical density (Mouse ACVR2A): 2.71 OD
optical density (Human ACVR2A): 2.69 OD
B18: 371_B06 (antibody, V domains shown)
VH: B1 VH with S30D, G33S, S49A, S55G, T58K
VL: B1 VL with V30L, S31T, A55H, E93N, T94L

optical density (Goat anti-Human Kappa): 3.51 OD
optical density (Mouse ACVR2A): 2.79 OD
optical density (Human ACVR2A): 2.65 OD
B19: 371_A06 (antibody, V domains shown)
VH: B1 VH with S49A, S55G
VL: B1 VL with V30L, S31T, V33L, A55H, E93D, T94S

optical density (Goat anti-Human Kappa): 3.56 OD
optical density (Mouse ACVR2A): 2.62 OD
optical density (Human ACVR2A): 2.84 OD
B20: 371_A03 (antibody, V domains shown)
VH: B1 VH with S31D, S49A, G50N, S55G, S59G
VL: B1 VL with V30L, V33L, A51T, T94S

optical density (Goat anti-Human Kappa): 3.46 OD
optical density (Mouse ACVR2A): 2.79 OD
optical density (Human ACVR2A): 2.41 OD
B21: 371_F06 (antibody, V domains shown)
VH: B1 VH with S30D, G33S, S49A, G50N, S55G
VL: B1 VL with V33L, A55H, E93N, T94S

optical density (Goat anti-Human Kappa): 3.66 OD
optical density (Mouse ACVR2A): 3.1 OD
optical density (Human ACVR2A): 2.95 OD
B22: 371_F04 (antibody, V domains shown)
VH: B1 VH with S30D, G33S, S49A, T58K, S59G
VL: B1 VL with V30L, V33L, V47L, A55H, E93N, T94N

optical density (Goat anti-Human Kappa): 3.6 OD
optical density (Mouse ACVR2A): 3.31 OD
optical density (Human ACVR2A): 3.19 OD
B23: 372_F03 (antibody, V domains shown)
VH: B1 VH with S49A, S55G
VL: B1 VL with V30L, V33L, E93D

optical density (Goat anti-Human Kappa): 3.65 OD
optical density (Mouse ACVR2A): 3.06 OD
optical density (Human ACVR2A): 2.88 OD
B24: 371_A07 (antibody, V domains shown)
VH: B1 VH with S31D, G33S, G50N, S55G, T58K
VL: B1 VL with V30L, V33L, A51T, E93D, T94L

optical density (Goat anti-Human Kappa): 3.08 OD
optical density (Mouse ACVR2A): 1.33 OD
optical density (Human ACVR2A): 1.25 OD
B25: 371_G05 (antibody, V domains shown)
VH: B1 VH with S30D, G33S, S59G
VL: B1 VL with V30S, V33L, V47L, A51V, E93S, T94S

optical density (Goat anti-Human Kappa): 3.43 OD
optical density (Mouse ACVR2A): 2.55 OD
optical density (Human ACVR2A): 2.2 OD
B26: 371_F08 (antibody, V domains shown)
VH: B1 VH with S30D, S31D, G33S, S55G, S59G
VL: B1 VL with A55H, T94S

optical density (Goat anti-Human Kappa): 3.6 OD
optical density (Mouse ACVR2A): 3.24 OD
optical density (Human ACVR2A): 3.01 OD
B27: 371_C03 (antibody, V domains shown)
VH: B1 VH with G33S, G50N, S55G, T58K, S59G
VL: B1 VL with V30L, V33L, A51T, E93S

optical density (Goat anti-Human Kappa): 3.66 OD
optical density (Mouse ACVR2A): 3.23 OD
optical density (Human ACVR2A): 2.96 OD
B28: 371_H09 (antibody, V domains shown)
VH: B1 VH with S30D, G33S, G50N, S55G
VL: B1 VL with V30L, S31T, R54L, E93D, T94S

optical density (Goat anti-Human Kappa): 2.44 OD
optical density (Mouse ACVR2A): 1.16 OD
optical density (Human ACVR2A): 1.06 OD
B29: 371_A08 (antibody, V domains shown)
VH: B1 VH with N35H, G50S, S55G
VL: B1 VL with V30L, V33L, T94L

optical density (Goat anti-Human Kappa): 3.41 OD
optical density (Mouse ACVR2A): 1.92 OD
optical density (Human ACVR2A): 1.65 OD
B30: 371_G10 (antibody, V domains shown)
VH: B1 VH with G33S, S55G, T58K
VL: B1 VL with V30S, V47L, A55H, Y92D, E93D, T94S

optical density (Goat anti-Human Kappa): 3.48 OD
optical density (Mouse ACVR2A): 2.54 OD
optical density (Human ACVR2A): 2.26 OD
B31: 372_F06 (antibody, V domains shown)
VH: B1 VH with S31D, S49A, S55G, T58K
VL: B1 VL with V30L, V47L, R54L

optical density (Goat anti-Human Kappa): 3.52 OD
optical density (Mouse ACVR2A): 3.53 OD
optical density (Human ACVR2A): 3.45 OD
B32: 370_F07 (antibody, V domains shown)
VH: B1 VH with S30D, G33S, G50N, S55G, T58K, S59G
VL: B1 VL with V30L, V33L, V47L, E93N, T94L

optical density (Goat anti-Human Kappa): 3.33 OD
optical density (Mouse ACVR2A): 3.04 OD
optical density (Human ACVR2A): 2.78 OD
B33: 371_B07 (antibody, V domains shown)
VH: B1 VH with S30D, G33S, S49A, S55G
VL: B1 VL with V30L, S31T, V47L, T94L

optical density (Goat anti-Human Kappa): 2.17 OD
optical density (Mouse ACVR2A): 2.94 OD
optical density (Human ACVR2A): 2.89 OD
B34: 371_D09 (antibody, V domains shown)
VH: B1 VH with G33S, G50N, S59G
VL: B1 VL with V30L, S31T, V33L, E93N, T94N

optical density (Goat anti-Human Kappa): 3.32 OD
optical density (Mouse ACVR2A): 1.55 OD
optical density (Human ACVR2A): 1.48 OD
B35: 371_D06 (antibody, V domains shown)
VH: B1 VH with S30D, S31D, G33S, S49A, S55G
VL: B1 VL with V30I, V47L, E93S

optical density (Goat anti-Human Kappa): 3.46 OD
optical density (Mouse ACVR2A): 2.64 OD
optical density (Human ACVR2A): 2.41 OD
B36: 372_C07 (antibody, V domains shown)
VH: B1 VH with S31D, G33S, G50N, A106H
VL: B1 VL with V30L, V33L, A55H, Y92D, E93N
